In article PMC3830444:

Columns and labels:
human α-thrombin (human) [1] = target: human α-thrombin (human) (UniProt P00734)
activated protein C = activated protein C (UniProt P04070)
γT-thrombin = γT-thrombin (UniProt P00734)
[2] = target: FPR-chloromethyl ketone-thrombin (active site-inhibited α-thrombin) (human) (UniProt P00734); assay: ELISA; HCII 1-75 immobilised on microtiter plates; α-thrombin or FPR-ck-thrombin incubated with or without competitor peptides or proteins; bound thrombin detected after washes with a horseradish peroxidase-conjugated sheep anti-human antibody (A490); one-site binding fit, IC50 = competitor concentration that reduces binding by 50%
human α-thrombin (human) [3] = target: human α-thrombin (human) (UniProt P00734); assay: as above
human α-thrombin (human) [4] = target: human α-thrombin (human) (UniProt P00734); remark: listed apart in the source
human α-thrombin (human) [5] = target: human α-thrombin (human) (UniProt P00734); assay: ELISA

activated protein C, sequence (P04070 whole entry, looked up): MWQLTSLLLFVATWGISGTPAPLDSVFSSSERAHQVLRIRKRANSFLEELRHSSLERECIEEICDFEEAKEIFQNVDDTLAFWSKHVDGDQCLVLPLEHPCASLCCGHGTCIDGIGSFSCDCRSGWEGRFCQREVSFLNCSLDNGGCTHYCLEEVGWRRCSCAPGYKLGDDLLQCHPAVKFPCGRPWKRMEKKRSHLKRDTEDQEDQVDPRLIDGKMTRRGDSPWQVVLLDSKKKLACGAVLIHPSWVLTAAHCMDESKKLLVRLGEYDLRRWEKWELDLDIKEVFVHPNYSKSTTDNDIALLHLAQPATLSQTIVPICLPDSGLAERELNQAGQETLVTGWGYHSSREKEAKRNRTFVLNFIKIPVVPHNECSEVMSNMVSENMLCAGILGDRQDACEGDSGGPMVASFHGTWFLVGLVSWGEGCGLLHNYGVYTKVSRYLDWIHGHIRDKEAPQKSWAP

| Substance | second order rate constant of inhibition (k2) of α-thrombin (human α-thrombin (human) [1]) [M⁻¹ s⁻¹] | second order rate constant of inhibition (k2) of APC (activated protein C) [M⁻¹ s⁻¹] | second order rate constant of inhibition (k2) of γT-thrombin (γT-thrombin) [M⁻¹ s⁻¹] | IC50 [2] [µM] | concentration required to double the Thrombin Clotting Time (TCT) of diluted citrated human plasma (human α-thrombin (human) [4]) [µM] | other results |
| --- | --- | --- | --- | --- | --- | --- |
| HAPI RCL5 (HAPI M358R with additional F352A/L353V/E354V/A355I/I356A/I460L substitutions) (from UniProt P01009 25-418) | – | – | – | 17 | – | – |
| HCII 1-75 (recombinant protein of 84 amino acids: residues 1-75 of heparin cofactor II with an N-terminal nonapeptide tag) (domain or fragment) | – | – | – | 9 | 12 | IC50 (human α-thrombin (human) [3]): 8 µM |
| HV3API M358R (HV3 residues 54-66 fused through G6 to the N-terminus of API M358R) (from UniProt P01009 25-418) | – | 31700 | – | – | – | – |
| HV3_(54-66) synthetic peptide | – | – | – | – | 0.45 | IC50 (human α-thrombin (human) [5]): 0.9 µM |

Now from value to substance, other results behind:

| second order rate constant of inhibition (k2) of α-thrombin (human α-thrombin (human) [1]) [M⁻¹ s⁻¹] | second order rate constant of inhibition (k2) of APC (activated protein C) [M⁻¹ s⁻¹] | second order rate constant of inhibition (k2) of γT-thrombin (γT-thrombin) [M⁻¹ s⁻¹] | Substance | IC50 [2] [µM] | concentration required to double the Thrombin Clotting Time (TCT) of diluted citrated human plasma (human α-thrombin (human) [4]) [µM] | other results |
| --- | --- | --- | --- | --- | --- | --- |
| 367000 | 28300 | 98300 | API M358R (alpha-1 proteinase inhibitor with the substitution of Met358 by Arg) (from UniProt P01009 25-418) (natural protein) | – | – | – |
| 3.1e+06 | 28300 | 567000 | HAPI M358R (residues 1-75 of heparin cofactor II fused to API M358R) (from UniProt P01009 25-418) | – | – | – |
